# Test results published in paper doi:10.1101/2021.10.18.464838, “Two distinct classes of co-chaperones compete for the EEVD motif in heat shock protein 70 (Hsp70) to tune its activity” (bioRxiv, 2021).
# “And” between values parts separate entries of the source, which are not always exact repeats. Equal entries are not always repeated. Where no end group is shown, it is not given here. The star is where a group is joined. FITC = O=C1OC2(c3ccc(O)cc3Oc3cc(O)ccc32)c2ccc(NC(=S)*)cc21; Ahx = NCCCCCC(=O)O
# B1: Hsp72 10-mer peptide with the P5 Ile replaced by Met (peptide, UniProt P0DMV8 632-641, looked up)
# peptide: Ac-GSGPTMEEVD-OH
# notes: also called P5 Ile to Met mutant; source: synthetic peptide, bought: GenScript
# B2: Hsp72 phosphomimetic T636E tracer FITC-Ahx-GSGPEIEEVD (peptide)
# peptide: GSGPEIEEVD-OH
# modifications: not fully specified (N-terminus); printed as FITC-Ahx-GSGPEIEEVD
# notes: last 10 residues of Hsp72/HSPA1A with the P6 Thr changed to Glu; also called T636E Hsp72 fluorescent tracer; P6 Thr to Glu; source: synthetic peptide, bought: GenScript
# B3: Hsp72 C-terminal 7-mer peptide PTIEEVD (peptide)
# peptide: Ac-PTIEEVD-OH
# notes: last 7 residues of Hsp72/HSPA1A; also called last 7 amino acids of Hsp70's C-terminus; source: synthetic peptide, bought: GenScript
# B4: Hsp72 tracer FITC-Ahx-GSGPTIEEVD (peptide)
# peptide: {FITC-Ahx}-GSGPTIEEVD-OH
# modifications: not fully specified; printed as FITC-Ahx-GSGPTIEEVD
# notes: last 10 residues of Hsp72/HSPA1A; also called EEVD tracer; fluorescent Hsp72 peptide; source: synthetic peptide, bought: GenScript
# B5: CHIP (recombinant human) (natural protein, UniProt Q9UNE7 1-303, looked up)
# chain: MKGKEEKEGGARLGAGGGSPEKSPSAQELKEQGNRLFVGRKYPEAAACYGRAITRNPLVAVYYTNRALCYLKMQQHEQALADCRRALELDGQSVKAHFFLGQCQLEMESYDEAIANLQRAYSLAKEQRLNFGDDIPSALRIAKKKRWNSIEERRIHQESELHSYLSRLIAAERERELEECQRNHEGDEDDSHVRAQQACIEAKHDKYMADMDELFSQVDEKRKKRDIPDYLCGKISFELMREPCITPSGITYDRKDIEEHLQRVGHFDPVTRSPLTQEQLIPNLAMKEVIDAFISENGWVEDY
# notes: CHIP, human; also called E3 ubiquitin ligase CHIP; TPR domain co-chaperone; source: E. coli BL21(DE3), purified (Ni-NTA, TEV cleavage, SEC); not shown: His6, N-terminal, cleaved
# Tests used:
# Conditions in all cases: both partners purified
# [1] = molecular target: T1, DnaJB4 (recombinant, human, full length, wild type) (human, UniProt Q9UDY4 1-337); assay: fluorescence polarisation; competition: 100 µM unlabeled peptide, 5 µM DnaJB4, 20 nM Hsp72 tracer in JDP binding buffer; room temperature, 30 min; tracer displacement relative to DMSO control
# T1 construct: DnaJB4, human, full length; Expressed from pMCSG7 with a TEV site; also called WT DnaJB4; Class B JDP; source: E. coli BL21 (DE3) Rosetta, purified (Ni-NTA, TEV cleavage, SEC); not shown: His6, N-terminal, cleaved
# T1 sequence (Q9UDY4 whole entry): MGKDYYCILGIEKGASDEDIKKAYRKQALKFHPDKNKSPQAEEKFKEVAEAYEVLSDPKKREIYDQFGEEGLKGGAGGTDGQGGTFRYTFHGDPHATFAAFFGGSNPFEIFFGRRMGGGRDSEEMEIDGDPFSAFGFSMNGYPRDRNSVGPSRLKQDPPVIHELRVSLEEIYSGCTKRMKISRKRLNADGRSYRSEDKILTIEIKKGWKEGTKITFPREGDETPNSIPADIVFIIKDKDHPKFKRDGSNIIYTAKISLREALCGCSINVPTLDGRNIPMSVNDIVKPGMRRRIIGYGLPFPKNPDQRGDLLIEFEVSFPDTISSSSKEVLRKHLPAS
# [2] = molecular target: T1, DnaJB4 (recombinant, human, full …); assay: fluorescence polarisation; saturation binding: 20 nM Hsp72 tracer with DnaJB4 (WT or QPD) 110 to 0.013 µM in 2X dilutions; 50 mM Tris, 15 mM NaCl, 1 mM DTT, 0.01% Triton X-100, pH 8.0; room temperature, 30 min
# [3] = molecular target: B2; assay: fluorescence polarisation; saturation binding: 20 nM Hsp72 tracer with CHIP 110 to 0.013 µM in 2X dilutions; 50 mM HEPES, 50 mM KCl, 0.01% Triton X-100, pH 7.4; room temperature, 30 min
binder,measurement,setting,value
B1,binding result,[1],binds
B2,binding result,[2],binds
B3,binding result,[1],binds
B4,Kd,[2],1910 nM and 1690 nM
B5,fold weakening of the affinity against the WT tracer,[3],5 fold
